Experimental data reported in the DeepSol protein solubility set.

Experiment: soluble on expression in E. coli; label from the status in PepcDB or PDB records

Sequence	soluble on expression in E. coli
MLKREMNIADYDAELWQAMEQEKVRQEEHIELIASENYTSPRVMQAQGSQLTNKYAEGYPGKRYYGGCEYVDVVEQLAIDRAKELFGADYANVQPHSGSQANFAVYTALLQPGDTVLGMNLAQGGHLTHGSPVNFSGKLYNIVPYGIDESGKIDYDEMAKLAKEHKPKMIIGGFSAYSGVVDWAKMREIADSIGAYLFVDMAHVAGLIAAGVYPNPVPHAHVVTTTTHKTLAGPRGGLILAKGGDEELYKKLNSAVFPSAQGGPLMHVIAGKAVALKEAMEPEFKVYQQQVAKNAKAMVEVFLNRGYKVVSGGTENHLFLLDLVDKNLTGKEADAALGRANITVNKNSVPNDPKSPFVTSGIRIGSPAVTRRGFKEAEVKELAGWMCDVLDNINDEATIERVKAKVLDICARFPVYA	not soluble
MLKSIELNSHIRNRLAEYLKGRGMDFQTAMQEEKGNKEIAAIVHSGLPTLVRKLYSEQKMQKFFWEKRDLIADYISRRMQG	not soluble
MLKTISPLISPELLKVLAEMGHGDEIIFSDAHFPAHSMGPQVIRADGLLVSDLLQAIIPLFELDSYAPPLVMMAAVEGDTLDPEVERRYRNALSLQAPCPDIIRINRFAFYERAQKAFAIVITGERAKYGNILLKKGVTP	soluble
MLLAFKAKIALAALAGFVTPLAVTPLVIDHGDAALDGQQAMVEIAPGAMDYRLPGEFTRDGRQIEAPRTKLQFDRPLSIMLHQVSAADYQRCVDDGACHPMPAATAVRADRPAVQVSWQDATTYADWLSRKTGAHYRLPTDAEWAFAAGSKFKDDGLALDSDDPSVRWIARYERESDRDNLSAALRSFGGFGANERGLLDLSGNVWEWTTTCFDRSAIDAAGRPQAQTANCGVRVAEGLHRAYVSDFIRDAKAGGCSAGLPPIHLGFRLVREPAAPLARLRGQLDRVVTAAGILEHHHHHH	not soluble
MLLDKIQNLIIQSDISIFQSMKKMDEEKVKLLFVFRGDCFVGILTIGDIQRAIIKQNDTSMQINNILDQNKVFAYKGESLEIIKNKMIHLRAECMPILDSKGELVDVLFWKDLFIDEVRVDDRKIDLPVVIMAGGKGTRLKPLTNVIPKPLIPIGDKTILEAILDQFESIGCSKFYMSVNYKYDILKFYLAQLDHKYDIRFFKEDKPLGTIGSVSLLKDKISTPFFVSNCDIIIDQDYRDVYDYHINNSNDLTIVTAVKRTRIPYGVIETIENGLMTELIEKPEFTYMINSGVYILQPELINEIPENELFHITHLMEKVKSRGGKIGCFPVSEKSWTDIGEWNEYLKLLGILEHHHHHH	not soluble
MLLDVQRGQLSFTKYSIITVIWLSLSRILNRGQLSLECFEFWQPTSQLLVLDVCLLDAFALEHHHHHH	not soluble
MLLPEPTTLRHVLIDGTIPQVATDEALIKDFGHPYEYAFNRTPQGYQVRWNTPKGVYILDAVVAAHIDPDDQWYWHQQFAFAIPELAEGPHHSSEELLTAARTLNGNGPAYLVPTEDGHTDVIVATPSFPQLPLAHALTLGLGQARNNNLTDDEIRRAIIAFAAQNDYSVAEDGLILCVRSDNGEQAHVDIARLKVRDLQSTTPQLRLTDVLADATFVAAEHQLLLNGRFPDARATTNDDCSVVTLTTPTGQTLRARALLIATLRGETLQWSWADPAVCDLPGAKAALGVKNFAIDNGLGMLLGQVDAATALSQRLYDAAKPVSRFWTDVRVPLSDGSTAIMLVDASELRLPPPSHAAVFATLHETVPHGRDIRRALSYYGAFRRITIDDVDYRRVRVHAPSAPIQVSMDACGRVCSIV	not soluble
MLLSNEEFLKKLTDLLQTHQSKGTGSVYLSQKCNPVDEGEGSSASVLIRAKSGAAEKISTVVELDYFTDFFQSYAEVCKGQIVGLKKRDRK	soluble
MLMRPLDLTEKRGKKVTIYFEGKELEAYEGEKLPVALLANEIYWLTTSNEGRKRGAFTFGPVPMTVNGVKGLEARRIKVKDGMKIERQGYYDFHEEPVVEPGEIERVVVDVAIIGGGPAGIGAALELQQYLTVALIEERGWLGGDMWLKGIKQEGFNKDSRKVVEELVGKLNENTKIYLETSALGVFDKGEYFLVPVVRGDKLIEILAKRVVLATGAIDSTMLFENNDMPGVFRRDFALEVMNVWEVAPGRKVAVTGSKADEVIQELERWGIDYVHIPNVKRVEGNEKVERVIDMNNHEYKVDALIFADGRRPDINPITQAGGKLRFRRGYYSPVLDEYHRIKDGIYVAGSAVSIKPHYANYLEGKLVGAYILKEFGYDAQPCIYEEKLREYEPESLSIPRIPLDKFNLEDVQICGCDVSLKKVDEVIRKGITDLQIIKRLTHLAMGFCQGRYCLFNGAVVVSQRTGKKLSEIDLPVARSPIKNVKMGILARR	soluble
MLNGSCLCGRVAYTVDGPLADVVNCHCAMCRKAHGAAFRTRATVRAEHFAFVRGESDITWYSSSPGNYRGFCSACGTPLLSRFDQTPDVYALPLGALDDDPGVKAACHVYVAHKAPWHDITDDLPRHPEGRPG	not soluble
MLPHSGRMVLIDRITRYGDDFVEAGAQVKPDHILLAGGMLPYTAFIELMAQAVGAYAGIQARKNARPVRLGFLPGTRKLEIFAQSVPVGTHLPATAHMSIQDAGVWACPTANCVGRMRRKLRPEHSFQTAFWHAPHSTCTAPNTMTEQLTPSEQAHIRRTTMTETVLITGSNRGIGKAAALEHHHHHH	not soluble
MLPKANRIPYAMTVHGDTRIDNYYWLRDDTRSQPEVLDYLHQENEYGRKVMTSQQALQDRILKEIIDRIPPREVSAPYVKNGYRYRYIYEPGCEYAIYQRQSALSEEWDVWETLLDANQRAAHSEFYTLGGLAITPDNTIMALAEDYLSRRQYGLRFRNLESGNWYPELLDNVAPEFVWANDSLTLYYVRKHKKTLLPYQVWRHTIGTPSSQDELVYEEKDDTFYVSLHKTTSQHYVVIHLASATTSEVLLLDAELADAEPFSFLPRRKDHEYSLDHYQHKFYLRSNRNGKNFGLYRTRVRNENAWEELIPPREHIMLEGFTLFTDWLVVEERQRGLTSLRQINRKTREVIGIAFDDPAYVTWLAYNPEPETSRLRYGYSSMTTPDTLFELDMDTGERRVLKQTEVPGFDSGCYQSEHLWITARDGVEVPVSLVYHQKYFRKGQNPLLVYGYGSYGSSIDADFSSSRLSLLDRGFVYAIVHVRGGGELGQQWYEDGKFLKKRNTFNDYLDACDALLKLGYGSPSLCYGMGGSAGGMLMGVAINERPELFHGVIAQVPFVDVLTTMLDESIPLTTGEFEEWGNPQDIEYYDYMKSYSPYDNVKAQDYPHLLVTTGLHDSQVQYWEPAKWVAKLRELKTDQRLLLLCTDMDSGHGGKSGRFKSYEGVALEFAFLIGLAQGTLHSA	not soluble
MLPSAPAPLAHFLLFLHLIHSARPEDGVPIETIHAPMFEDVFDVRIHEGADKGSRLTMSQDLQKSTEPLGHCFGQLETDVDWIEWKSSRSAFYTTAQMPISATKNSNNLVGSLHLLCAGNQMHTFPFRVHITHRNHHPPTFSKNSFKFHVPTTLPIGSVITTLEVKDQDPVIYNSERRLAFTKDEPLVDILQDGTLKLKSDLSILTPYTPQRMQILAIDYGSPQLFTIANITLIPVTVSMVRELHVNVATEEYQIFEWEHPQYGTVDKYRLGIRRDDQVVYEEELEAAKTLALTKIMLSNSMNVSFQVTAIDENGETSSEWTQIGPIDRDVICKGECSRGGTPLCYVGAFNRVEQFIDARGAHCLCYPGFMGVSCETIGSMWTLTTLDVFVDLIRAMANKLNSIECSQIAI	not soluble
MLPSAQVARLKPDPFPPSLSPIPHGAVTFAALAPCHNLPIFSSRQMLRDSLTYSHTSPTMSPQIANRFEASLDAQDIARISLFTLESGVILRDVPVAYKSWGRMNVSRDNCVIVCHTLTSSAHVTSWWPTLFGQGRAFDTSRYFIICLNYLGSPFGSAGPCSPDPDAEGQRPYGAKFPRTTIRDDVRIHRQVLDRLGVRQIAAVVGASMGGMHTLEWAFFGPEYVRKIVPIATSCRQSGWCAAWFETQRQCIYDDPKYLDGEYDVDDQPVRGLETARKIANLTYKSKPAMDERFHMAPGVQAGRNISSQDAKKEINGTDSGNSHRAGQPIEAVSSYLRYQAQKFAASFDANCYIAMTLKFDTHDISRGRAGSIPEALAMITQPALIICARSDGLYSFDEHVEMGRSIPNSRLCVVDTNEGHDFFVMEADKVNDAVRGFLDQSLM	soluble
MLQCGAKNVNPLERFVSSLPVAAVLPELLAALDGASQVLLSAPTGAGKSTWLPLQLLAHPGINGKIILLEPRRLAARNVAQRLAELLNEKPGDTVGYRMRAQNCVGPNTRLEVITEGVLTRMIQRDPELSGVGLVILDEFHERSLQADLALALLLDVQQGLRDDLKLLIMSA	not soluble
MLQGKAFLITGAGGALSRALIPAFHQAGARLFLSDPRPERMAERAQAVGAKTFVADLTRLEEALALARFVEEEAPLYGVVHTVGGFAAGRFLDTDPGLYDWMLDLNLRTTFNLLKAVLPYMAKRGEGFFAAFAAGPAWTGAGPGRALYTAAKTALASLLRSLQGEVEGVRFLVVYPMGTLDTEANRKAMPEADFSRWIAPELVAKVVVEAAGAKGGRLLELPIYPPL	soluble
MLQYRIIVDGRVQGVGFRYFVQMEADKRKLAGWVKNRDDGRVEILAEGPENALQSFVEAVKNGSPFSKVTDISVTESRSLEGHHRFSIVYS	soluble
MLRFYAMKQITEPGTYEIRGEVAEGDFSWDATNFAGFFYDVNDDVSTESLTVTGLNGGNVIPEGGLVYETTIQMVDYEYSKPSVGWDQFPVLGFFAEEYIPINADKADKLAKLVLDSDDKYTIRTGEQLDLGEGYAIEAKQVDVDGEKVWLEFTKDGEFVDDEIISVVSGSDNTWEVELDDIQDEDDVVVLRVHVNQVFQGAVDSIAQIEGIWLIDYANAMKIESDDEFGDLDNVKINGATLTITNEDTFTLTRDDEVEIGQGMFFKVADTAASDLRYYPFVEKTIDGEVVLEHHHHHH	soluble
MLRHNVPIRRDLDKIACDHGFDFHVIDNEIYWDESRAYRFTLRQIEEQIEKPTAELHQMCLEIVERAVRDEQSMQQLAIPPLYWDVIAESWRSRDPSLYGRMDFVWCGKDPVKLLEYNADTPTSLYESSYFQWLWLEDARRSGAIPRDADQYNAIQERLIARFSELYSREPLYFCCCEDTDEDRTTVLYLQDCAQQAGQETRFIYIEELGLGVGGVLTDLDDNVIRRAFKLYPLEWMMRDDNGPLLRKRREQWIEPLWKSILSNKGLLPLLWRFFPGHPNLLPAWFEGEKSLAAPGESSVRKPIYSREGGNVTIFDERQNVIDHADGDYADEPMIYQAFQPLPRFGDSYTLIGSWIIDDEASGMGIREDNTLITKDTSRFVPHYIAG	not soluble
MLRLATPLRSGLLSSAIRRHSACCGGEHKMSEAELKMSKLLTEGIDGCTRVEVHDVSNGCGSMFDVVVEAAGFKGKSKVAQHKQVTSILREQIKDMHGLTIKTKAA	not soluble
MLRLWEELNRVENLFLELLDDPKKKDVLLYLICYCQLVRRDGEYEVELPKLINCAEKPYKYISGNWQDVLLELGVLYLKDKKGKVYTGKEILLVKNPEGFKVGILPDYREDFYKFYTKLLKYWSVLNSRRTLGSNTTPDYYTPLLVHTFNEKLFKEAQYFSEILAMRFPKEKNLFLSVKLVSEFYREYAKTGRVKADNLNDAINFLSDTPDVFYSVNVKKFKKDIKKFLENLNKGEFYYITIEFASENRGKKRSILSKLWNFIKSLGGKRWNSRSSGMDYYSFIEHLLKKHRRQMMRSLESSTPRLQGT	not soluble
